To fix the notation:
B1: JBT0720 (peptide)
chain: FQSKGNVFVTGYFARLRAKL
B2: JBT0577 (peptide)
chain: FQSKKNVFVFGFFERLRAKL
B3: JBT0590 (peptide)
chain: FQSKKNDFVFGYFERLRAKL
B4: JBT0497 (peptide)
chain: AQSKGNVFVFGYFERLRAKL
B5: JBT0592 (peptide)
chain: FQSKKNVFDFGYFERLRAKL
B6: JBT0583 (peptide)
chain: FQSKKNVFVFGYFERLRAFL
B7: JBT0516 (peptide)
chain: FESKGNVFVFGYFERLRAKL
B8: JBT0572 (peptide)
chain: FQSFKNVFVFGYFERLRAKL
B9: JBT0582 (peptide)
chain: FQSKKNVFVFGYFERLRFKL
B10: JBT0591 (peptide)
chain: FQSKKNVDVFGYFERLRAKL
B11: JBT0571 (peptide)
chain: FQFKKNVFVFGYFERLRAKL
B12: JBT0574 (peptide)
chain: FQSKKFVFVFGYFERLRAKL
B13: JBT0576 (peptide)
chain: FQSKKNVFVFFYFERLRAKL
B14: JBT0579 (peptide)
chain: FQSKKNVFVFGYFEFLRAKL
B15: JBT0594 (peptide)
chain: FQSKKNVFVFGDFERLRAKL
B16: JBT0487 (peptide)
chain: FQSKNNVFVHGYFERLRAKL
B17: JBT0586 (peptide)
chain: FDSKKNVFVFGYFERLRAKL
B18: JBT0588 (peptide)
chain: FQSDKNVFVFGYFERLRAKL
B19: JBT0581 (peptide)
chain: FQSKKNVFVFGYFERLFAKL
B20: JBT0570 (peptide)
chain: FFSKKNVFVFGYFERLRAKL
B21: JBT0580 (peptide)
chain: FQSKKNVFVFGYFERFRAKL
B22: JBT0573 (peptide)
chain: FQSKFNVFVFGYFERLRAKL
B23: JBT0806 (peptide)
chain: FQSKGNVFVAGYFARLRAKL

The target in one assay is T1, TFPI (human TFPI-1α) as coated or added in the ELISA, microarray and enzymatic assays (human), P10646.
Assay: not given
The settings on record: modification not given.
As a reminder, the EC50 is the concentration needed to bring the measured effect to its halfway point. In turn, B1 showed a 50% effective concentration (EC50) of 0.22 µM.

The target in another assay is T1, TFPI (human TFPI-1α) as coated or added …. As to the kind of experiment: competition. Conditions: modification not given.
As usually defined, the IC50 is the concentration at which inhibition is half-maximal. A high value points to lower potency. In the case of B2, the IC50 is > 5 µM.
Still for that read-out and setting: with B3 the figure was > 5 µM; with B4, 0.1 µM; with B5, > 5 µM.
For B6, the IC50 was > 5 µM.
On the same count and under the same terms, with B7 the figure was 1.19 µM; with B8, > 5 µM; with B9, > 5 µM.
The same measure, in the same setting: with B10 the figure was > 5 µM; with B11, > 5 µM; with B12, > 5 µM.
The same measure, in the same setting: with B13 the figure was > 1.67 µM; with B14, > 5 µM.
Consider B15, for which the IC50 is > 5 µM.
For B16, the IC50 came to 0.04 µM.
Regarding B17, the half-maximal inhibitory concentration (IC50) was > 1.67 µM.
On to B18, for which the IC50 was > 5 µM.
As for B19, the IC50 was > 5 µM.
With B20, the half-inhibitory concentration (IC50) was > 5 µM.
For the molecule B21, the IC50 was > 5 µM.
In turn, B22 returned an IC50 of 1.37 µM.

For the next assay the target is unchanged.
Assay: not given
The settings on record: modification not given. The source holds these as a separate data set.
Turning to B23, the 50% effective concentration (EC50) was found to be 2.42 µM.

Another assay has the same target.
Assay: not given
Conditions: modification not given. The source holds these as a separate data set.
B23 had an EC50 of 0.13 µM.

Source of the values: US20120028901A1.
